# Measurements published in patent US20030009023A1 (US Dept. of Health and Human Services, published 2003).
# B1: bovine Frzb (other)
# chain: AACEPVRIPLCKSLPWNMTKMPNHLHHSTQANAILAIEQFEGLLGTHCSPDLLFFLCAMYAPICTIDFQHEPIKPCKSVCERARQGCEPILIKYRHSWPESLACEELPVYDRGVCISPEAIVTADGADFPMDSSNGNCRGASSERCKCKPVRATQKTYFRNNYNYVIRAKVKEIKTKCHDVTAVVEVKEILKASLVNIPRETVNLYTSSGCLCPPLNVNEEYLIMGYEDEERSRLLLVEGSIAEKWKDRLGKKVKRWDMKLRHLGLNTSDSSHSDSTQSQKPGRNSNSRQARN
# notes: Full-length bovine Frzb expressed from pcDNA3 (pFrzb) in COS7 cells, or translated in vitro with microsomal membranes, or from injected mRNA; also called Bfrzb; BFrzb
# B2: Frzb deletion construct delta CRD (other)
# chain: AACEPVVCISPEAIVTADGADFPMDSSNGNCRGASSERCKCKPVRATQKTYFRNNYNYVIRAKVKEIKTKCHDVTAVVEVKEILKASLVNIPRETVNLYTSSGCLCPPLNVNEEYLIMGYEDEERSRLLLVEGSIAEKWKDRLGKKVKRWDMKLRHLGLNTSDSSHSDSTQSQKPGRNSNSRQARN
# notes: Made by deleting amino acids 39 to 145 of Frzb; also called CRD deletion; removal of the entire frizzled domain
# B3: β-lactamase (enzyme)
# chain: HPETLVKVKDAEDQLGARVGYIELDLNSGKILESFRPEERFPMMSTFKVLLCGAVLSRVDAGQEQLGRRIHYSQNDLVEYSPVTEKHLTDGMTVRELCSAAITMSDNTAANLLLTTIGGPKELTAFLHNMGDHVTRLDRWEPELNEAIPNDERDTTMPAAMATTLRKLLTGELLTLASRQQLIDWMEADKVAGPLLRSALPAGWFIADKSGAGERGSRGIIAALGPDGKPSRIVVIYTTGSQATMDERNRQIAEIGASLIKHW
# notes: also called β-lactamase control
# Columns and labels:
# Xwnt-8 (Xenopus) = Xwnt-8 (Xenopus) (UniProt P28026); assay: cell-based or functional assay
# HA-tagged mouse Wnt-5B = target: T1, HA-tagged mouse Wnt-5B (mouse, UniProt P22726 18-359, limits assumed); assay: anti-HA immunoprecipitation of co-transfected COS7 lysates, immunoblot with N374-PEP
# T1 construct: also called pLNCW5B-HA; not shown: HA tag
# T1 sequence (looked up): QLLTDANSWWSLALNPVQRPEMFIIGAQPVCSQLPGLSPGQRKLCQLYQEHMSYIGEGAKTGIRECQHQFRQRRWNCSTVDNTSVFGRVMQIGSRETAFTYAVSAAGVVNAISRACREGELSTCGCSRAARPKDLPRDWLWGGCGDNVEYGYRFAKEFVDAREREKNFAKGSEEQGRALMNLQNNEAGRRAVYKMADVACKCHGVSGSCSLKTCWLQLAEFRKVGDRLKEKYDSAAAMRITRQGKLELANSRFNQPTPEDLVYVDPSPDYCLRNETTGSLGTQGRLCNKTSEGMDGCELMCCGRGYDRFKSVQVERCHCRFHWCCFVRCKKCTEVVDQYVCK
# HA-tagged mouse Wnt-6 = target: T2, HA-tagged mouse Wnt-6 (mouse, UniProt P22727 24-364, limits assumed); assay: as above
# T2 construct: also called pLNCW6-HA; not shown: HA tag
# T2 sequence (looked up): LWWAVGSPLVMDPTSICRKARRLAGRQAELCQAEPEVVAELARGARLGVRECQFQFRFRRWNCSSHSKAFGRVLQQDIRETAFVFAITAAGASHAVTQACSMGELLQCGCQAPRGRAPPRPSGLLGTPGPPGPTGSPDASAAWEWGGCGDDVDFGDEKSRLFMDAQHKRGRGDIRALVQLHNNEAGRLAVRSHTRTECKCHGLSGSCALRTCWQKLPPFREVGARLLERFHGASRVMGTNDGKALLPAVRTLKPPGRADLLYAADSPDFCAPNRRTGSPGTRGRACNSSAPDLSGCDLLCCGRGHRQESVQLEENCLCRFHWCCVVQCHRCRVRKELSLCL
# HA-tagged mouse Wnt-7A = target: T3, HA-tagged mouse Wnt-7A (mouse, UniProt P24383 32-349, limits assumed); assay: as above
# T3 construct: also called pLNCW7A-HA; not shown: HA tag
# T3 sequence (looked up): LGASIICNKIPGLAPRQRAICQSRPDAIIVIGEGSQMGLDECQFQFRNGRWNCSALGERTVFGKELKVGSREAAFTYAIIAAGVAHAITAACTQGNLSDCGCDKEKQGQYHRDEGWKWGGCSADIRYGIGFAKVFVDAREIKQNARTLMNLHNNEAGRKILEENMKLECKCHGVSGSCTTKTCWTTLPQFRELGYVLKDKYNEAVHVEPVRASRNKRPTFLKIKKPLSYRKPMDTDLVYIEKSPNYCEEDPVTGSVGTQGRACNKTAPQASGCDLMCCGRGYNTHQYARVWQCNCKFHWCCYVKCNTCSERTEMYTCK
# HA-tagged mouse Wnt-7B = target: T4, HA-tagged mouse Wnt-7B (mouse, UniProt P28047 25-349, limits assumed); assay: as above
# T4 construct: also called pLNCW7B-HA; not shown: HA tag
# T4 sequence (looked up): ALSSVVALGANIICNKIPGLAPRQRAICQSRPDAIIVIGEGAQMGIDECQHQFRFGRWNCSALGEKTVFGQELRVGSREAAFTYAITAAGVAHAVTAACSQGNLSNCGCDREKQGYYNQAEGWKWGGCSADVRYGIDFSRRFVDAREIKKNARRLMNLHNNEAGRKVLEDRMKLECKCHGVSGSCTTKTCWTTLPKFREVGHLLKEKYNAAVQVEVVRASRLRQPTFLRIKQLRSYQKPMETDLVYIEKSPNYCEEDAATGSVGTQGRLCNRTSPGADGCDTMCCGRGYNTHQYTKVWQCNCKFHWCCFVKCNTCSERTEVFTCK
# HA-tagged murine Wnt-1 [1] = target: T5, HA-tagged murine Wnt-1 (mouse, UniProt P04426 28-370); assay: as above
# T5 construct: also called pLNCWnt1HA; pLNCW1-HA; not shown: hemagglutinin (HA) tag near the C-terminus
# T5 sequence (looked up): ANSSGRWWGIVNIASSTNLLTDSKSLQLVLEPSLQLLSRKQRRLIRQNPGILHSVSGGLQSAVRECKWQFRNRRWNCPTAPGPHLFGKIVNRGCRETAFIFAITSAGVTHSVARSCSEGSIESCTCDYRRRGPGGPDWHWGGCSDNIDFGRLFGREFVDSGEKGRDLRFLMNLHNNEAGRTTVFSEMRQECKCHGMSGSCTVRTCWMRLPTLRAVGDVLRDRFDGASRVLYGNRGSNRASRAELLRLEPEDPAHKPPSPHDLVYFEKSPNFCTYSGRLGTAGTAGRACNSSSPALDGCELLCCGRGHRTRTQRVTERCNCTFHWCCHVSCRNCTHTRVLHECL
# HA-tagged mouse Wnt-2 = target: T6, HA-tagged mouse Wnt-2 (mouse, UniProt P21552 26-360, limits assumed); assay: as above
# T6 construct: also called pLNCW2-HA; not shown: HA tag
# T6 sequence (looked up): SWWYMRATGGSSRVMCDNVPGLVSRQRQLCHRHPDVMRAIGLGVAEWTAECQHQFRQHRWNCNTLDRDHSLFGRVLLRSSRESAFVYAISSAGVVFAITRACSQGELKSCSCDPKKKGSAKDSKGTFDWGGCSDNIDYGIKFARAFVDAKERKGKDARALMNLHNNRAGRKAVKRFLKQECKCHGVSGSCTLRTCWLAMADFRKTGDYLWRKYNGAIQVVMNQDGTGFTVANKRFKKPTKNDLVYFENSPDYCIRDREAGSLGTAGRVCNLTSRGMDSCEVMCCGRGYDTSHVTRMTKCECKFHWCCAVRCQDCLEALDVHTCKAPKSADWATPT
# HA-tagged mouse Wnt-3A = target: T7, HA-tagged mouse Wnt-3A (mouse, UniProt P27467 19-352, limits assumed); assay: as above
# T7 construct: also called pLNCW3A-HA; not shown: HA tag
# HA-tagged mouse Wnt-4 = target: T8, HA-tagged mouse Wnt-4 (mouse, UniProt P22724 23-351, limits assumed); assay: as above
# T8 construct: also called pLNCW4-HA; not shown: HA tag
# T8 sequence (looked up): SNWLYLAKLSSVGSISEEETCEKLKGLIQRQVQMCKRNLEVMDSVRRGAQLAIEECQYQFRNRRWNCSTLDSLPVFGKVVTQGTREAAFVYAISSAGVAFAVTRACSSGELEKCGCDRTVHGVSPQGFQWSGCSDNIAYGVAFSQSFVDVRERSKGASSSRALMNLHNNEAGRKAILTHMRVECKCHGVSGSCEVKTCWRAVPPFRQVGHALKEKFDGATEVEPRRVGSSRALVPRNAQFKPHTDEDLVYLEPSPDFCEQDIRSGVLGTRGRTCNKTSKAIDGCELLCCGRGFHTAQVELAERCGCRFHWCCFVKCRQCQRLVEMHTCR
# HA-tagged murine Wnt-1 [2] = target: T5, HA-tagged murine Wnt-1; assay: co-immunoprecipitation from lysates of co-transfected COS7 cells
# bovine Frzb = target: B1; assay: co-immunoprecipitation after in vitro cotranslation
# Xwnt-8^myc = target: T9, Xwnt-8^myc (Xenopus, UniProt P28026 23-358, limits assumed); assay: as above
# T9 construct: also called myc-tagged XWnt-8
# T9 sequence (looked up): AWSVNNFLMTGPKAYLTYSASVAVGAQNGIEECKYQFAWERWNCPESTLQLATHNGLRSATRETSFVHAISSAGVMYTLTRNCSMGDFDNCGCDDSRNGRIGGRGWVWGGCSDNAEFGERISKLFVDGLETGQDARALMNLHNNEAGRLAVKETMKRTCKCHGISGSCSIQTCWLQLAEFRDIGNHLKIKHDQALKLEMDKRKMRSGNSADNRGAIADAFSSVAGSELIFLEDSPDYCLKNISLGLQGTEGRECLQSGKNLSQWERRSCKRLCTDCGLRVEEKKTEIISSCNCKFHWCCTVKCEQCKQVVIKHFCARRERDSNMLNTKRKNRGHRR
# T7 sequence (P27467 19-352 limits assumed): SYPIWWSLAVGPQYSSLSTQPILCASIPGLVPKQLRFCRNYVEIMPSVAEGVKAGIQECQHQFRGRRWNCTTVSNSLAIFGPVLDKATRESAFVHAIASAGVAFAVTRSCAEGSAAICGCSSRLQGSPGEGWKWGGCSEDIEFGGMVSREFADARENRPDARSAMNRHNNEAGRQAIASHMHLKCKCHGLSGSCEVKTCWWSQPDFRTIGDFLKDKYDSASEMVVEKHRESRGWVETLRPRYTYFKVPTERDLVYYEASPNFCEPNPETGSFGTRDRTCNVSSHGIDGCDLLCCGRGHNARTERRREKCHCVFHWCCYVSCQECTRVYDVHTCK
molecule,measurement,setting,value
Xenopus Frzb,head defects produced by CSKA-Xwnt-8 plasmid in dorsal blastomeres (64/80 embryos without Xfrzb) (embryos with head defects out of 81),Xwnt-8 (Xenopus),0
B1,binding result,HA-tagged mouse Wnt-5B,binds
same,binding result,HA-tagged mouse Wnt-6,binds
same,binding result,HA-tagged mouse Wnt-7A,binds
same,binding result,HA-tagged mouse Wnt-7B,binds
same,binding result,HA-tagged murine Wnt-1 [1],binds
same,binding result,HA-tagged mouse Wnt-2,binds
same,binding result,HA-tagged mouse Wnt-3A,binds
same,binding result,HA-tagged mouse Wnt-4,binds
B2,binding result,HA-tagged murine Wnt-1 [2],no binding
B3,binding result,bovine Frzb,no binding
same,binding result,Xwnt-8^myc,no binding
